According to patent US20170152228A1, “SCREENING METHODS FOR THE BINDING AFFINITY OF CHEMICAL […] TO BIOLOGICAL MOLECULES AND NEDD4-1 […] THE SCREENING METHODS” (Northwestern University, published 2017):

Target: ubiquitin (Homo sapiens (Human), UniProt P0CG48)
Experiment: not stated how the value was obtained. It is named in the context of the fluorescence polarization assay.

B1: NEDD4-1 HECT domain (enzyme)
chain: GPLGSRDYKRKYEFFRRKLKKQNDIPNKFEMKLRRATVLEDSYRRIMGVKRADFLKARLWIEFDGEKGLDYGGVAREWFFLISKEMFNPYYGLFEYSATDNYTLQINPNSGLCNEDHLSYFKFIGRVAGMAVYHGKLLDGFFIRPFYKMMLHKPITLHDMESVDSEYYNSLRWILENDPTELDLRFIIDEELFGQTHQHELKNGGSEIVVTNKNKKEYIYLVIQWRFVNRIQKQMAAFKEGFFELIPQDLIKIFDENELELLMCGLGDVDVNDWREHTKYKNGYSANHQVIQWFWKAVLMMDSEKRIRLLQFVTGTSRVPMNGFAELYGSNGPQSFTVEQWGTPEKLPRAHTCFNRLDLPPYESFEELWDKLQMAIENTQGFDGVD
In the case of B1, the Kd is reported as 11 µM.
